The target in the assay is T1, phospho-IRF3 (S386), endogenous (human (endogenous in SALE)), Q14653.
T1 chain: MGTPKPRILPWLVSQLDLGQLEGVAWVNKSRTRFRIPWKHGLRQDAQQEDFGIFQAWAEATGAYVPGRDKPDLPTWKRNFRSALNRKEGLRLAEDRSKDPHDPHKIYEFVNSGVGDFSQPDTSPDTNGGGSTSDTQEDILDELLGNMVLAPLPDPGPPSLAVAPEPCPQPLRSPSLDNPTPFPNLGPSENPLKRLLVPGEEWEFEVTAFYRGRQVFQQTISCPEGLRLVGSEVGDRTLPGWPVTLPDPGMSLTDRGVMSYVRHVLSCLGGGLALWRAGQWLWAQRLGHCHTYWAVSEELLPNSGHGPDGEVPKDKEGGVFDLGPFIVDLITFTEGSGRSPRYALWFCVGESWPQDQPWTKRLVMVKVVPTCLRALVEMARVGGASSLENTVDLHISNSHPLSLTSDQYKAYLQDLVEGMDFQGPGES
Put plainly: native gel or EMSA. The following applies: remark: other sources report otherwise. On the technique in general: A gel shift assay detects complexes by their altered migration in electrophoresis.

Data on one molecule can be found in PMC2684960.

A word on the stoichiometry N: it is the number of molecules, sites or subunits per partner or assembly.

B1: phospho-IRF3 (S386), endogenous, Q14653 1-427 (natural protein)
chain: T1 chain
modifications: here or on the partner: phosphoserine at 386; phosphoserine at 386
The molecule B1 returned a stoichiometry N of 2.
